Assay results taken from article PMC4653696 (The Journal of Biological Chemistry, 2015).

B1: Cdc11(E294C)-capped, otherwise Cys-less septin hetero-octamer (Cdc11-Cdc12-Cdc3-Cdc10-Cdc10-Cdc3-Cdc12-Cdc11) (complex, S. cerevisiae)
chain 1: MSGIIDASSALRKRKHLKRGITFTVMIVGQSGSGRSTFINTLFGQQVVDTSTTILLPTDTSTEIDLQLREETVELEDDEGVKIQLNIIDTPGFGDSLDNSPSFEIISDYIRHQYDEILLEESRVRRNPRFKDGRVHAALYLINPTGHGLKEIDVEFIRQLGSLVNIIPVISKSDSLTRDELKLNKKLIMEDIDRWNLPIYNFPFDEDEISDEDYETNMYLRTLLPFAIIGSNEVYEMGGDVGTIRGRKYPWGILDVEDSSISDFVILRNALLISHLHDLKNYTHEILYERYRTCALSGESVAAESIRPNLTKLNGSSSSSTTTRRNTNPFKQSNNINNDVLNPASDMHGQSTGENNETYMTREEQIRLEEERLKAFEERVQQELLLKRQELLQREKELREIEARLEKEAKIKQEE
chain 2: MSAATATAAPVPPPVGISNLPNQRYKIVNEEGGTFTVMLAGESGLGKTTFINTLFQTVLKRADGQQHRQEPIRKTVEIDITRALLEEKHFELRVNVIDTPGFGDNVNNNKAWQPLVDFIDDQHDSYMRQEQQPYRTKKFDLRVHAVLYFIRPTGHGLKPIDIETMKRLSTRANLIPVIAKADTLTAQELQQFKSRIRQVIEAQEIRIFTPPLDADSKEDAKSGSNPDSAAVEHARQLIEAMPFAIVGSEKKFDNGQGTQVVARKYPWGLVEIENDSHSDFRKLRALLLRTYLLDLISTTQEMHYETYRRLRLEGHENTGEGNEDFTLPAIAPARKLSHNPRYKEEENALKKYFTDQVKAEEQRFRQWEQNIVNERIRLNGDLEEIQGKVKKLEEQVKSLQVKKSHLK
chain 3: MSLKEEQVSIKQDPEQEERQHDQFNDVQIKQESQDHDGVDSQYTNGTQNDDSERFEAAESDVKVEPGLGMGITSSQSEKGQVLPDQPEIKFIRRQINGYVGFANLPKQWHRRSIKNGFSFNLLVVGPDGIGKTTLMKTLFNNDDIEANLVKDYEEELANDQEEEEGQGEGHENQSQEQRHKVKIKSYESVIEENGVKLNLNVIDTEGFGDFLNNDQKSWDPIIKEIDSRFDQYLDAENKINRHSINDKRIHAVLYFIEPTGHYLKPLDLKFMQSVYEKVNLIPVIAKSDILTDEEILSFKKTIMNQLIQSNIELFKPPIYSNDDAENSHLSERLFSSLPYAVIGSNDIVENYSGNQVRGRSYPWGVIEVDNDNHSDFNLLKNLLIKQFMEELKERTSKILYENYRSSKLAKLGIKQDNSVFKEFDPISKQQEEKTLHEAKLAKLEIEMKTVFQQKVSEKEKKLQKSETELFARHKEMKEKLTKQLKALEDKKKQLELSINSASPNVNHSPVPTKKKGFLR
chain 4: MDPLSSVQPASYVGFDTITNQIEHRLLKKGFQFNIMVVGQSGLGKSTLINTLFASHLIDSATGDDISALPVTKTTEMKISTHTLVEDRVRLNINVIDTPGFGDFIDNSKAWEPIVKYIKEQHSQYLRKELTAQRERFITDTRVHAILYFLQPNGKELSRLDVEALKRLTEIANVIPVIGKSDTLTLDERTEFRELIQNEFEKYNFKIYPYDSEELTDEELELNRSVRSIIPFAVVGSENEIEINGETFRGRKTRWSAINVEDINQSDFVYLREFLIRTHLQDLIETTSYIHYEGFRARQLIALKENANSRSSAHMSSNAIQR
modifications: Alexa Fluor 555 maleimide (donor) or Alexa Fluor 647 maleimide (acceptor) on C294 (E294C); 0.7-0.8 dye molecules per subunit
notes: intact CTE (residues 303-415) restored; Cdc12, S. cerevisiae mitotic septin, Cys-less variant; Cdc3, S. cerevisiae mitotic septin, Cys-less variant; Cdc10, S. cerevisiae mitotic septin, Cys-less variant; The same preparation was labelled separately with donor (AF555) or acceptor (AF647); both are written as this one molecule; also called Cdc11^AF555; Cdc11^AF647; source: E. coli NiCo21 (DE3), …
B2: Bni5 (Bud neck-interacting protein 5), type II myosin-binding protein (natural protein, S. cerevisiae, UniProt P53890 1-448, looked up)
chain: MGLDQDKIKKRLSQIEIDINQMNQMIDENLQLVEPAEDEAVEDNVKDTGVVDAVKVAETALFSGNDGADSNPGDSAQVEEHKTAQVHIPTENEANKSTDDPSQLSVTQPFIAKEQITHTAIAIGDSYNSFVANSAGNEKAKDSCTENKEDGTVNIDQNRGEADVEIIENNDDEWEDEKSDVEEGRVDKGTEENSEIESFKSPMPQNNTLGGENKLDAELVLDKFSSANKDLDIQPQTIVVGGDNEYNHESSRLADQTPHDDNSENCPNRSGGSTPLDSQTKIFIPKKNSKEDGTNINHFNSDGDGQKKMANFETRRPTNPFRVISVSSNSNSRNGSRKSSLNKYDSPVSSPITSASELGSIAKLEKRHDYLSMKCIKLQKEIDYLNKMNAQGSLSMEDGKRLHRAVVKLQEYLDKKTKEKYEVGVLLSRHLRKQIDRGENGQFWIGTK
modifications: Alexa Fluor 647 maleimide on the native cysteines Cys-144, Cys-266 and Cys-375 (2.7 dye molecules per protein)
notes: Bni5, S. cerevisiae; the BNI5 ORF cloned behind His8 and a human rhinovirus 3C protease site in pH3c-LIC; also called Bni5^AF647; acceptor dye-labeled Bni5; source: E. coli NiCo21 (DE3), purified (IMAC, chitin-agarose, SEC), maleimide dye-labelled

Tests used:
[1] = molecular target: the molecule itself; assay: FRET or BRET; standard titrations of donor-labelled rods with acceptor-labelled rods in buffers of increasing KCl concentration (corrected FRET method); result at high ionic strength; apparent Kd
[2] = molecular target: T1, Shs1(E344C)-capped, otherwise Cys-less septin hetero-octamer (Shs1-Cdc12-Cdc3-Cdc10-Cdc10-Cdc3-Cdc12-Shs1) (S. cerevisiae, UniProt Q07657 1-551; P32468 1-407; P32457 1-520; P25342 1-322, C29V | C148S | E344C | C40A | C278S | C124V | C253V | C279V | C266S, Alexa Fluor 555 maleimide (donor) or Alexa Fluor 647 maleimide (acceptor) on C344 (E344C)); assay: FRET or BRET; as a1 but 50 nM donor (AF555)-labelled octamers; 45 mM KCl, 50 mM Tris-HCl pH 8.0; room temperature; apparent Kd; conditions: both partners purified
T1 construct: Cdc12, S. cerevisiae mitotic septin, Cys-less variant; Cdc3, S. cerevisiae mitotic septin, Cys-less variant; Cdc10, S. cerevisiae mitotic septin, Cys-less variant; Donor- and acceptor-labelled preparations are written as this one molecule; also called Shs1^AF555; Shs1^AF647; source: E. coli NiCo21 (DE3), subunits co-expressed, purified (IMAC, chitin-agarose flow-through, SEC), maleimide …
T1 sequence (Q07657 whole entry C29V/C148S/E344C, one chain of several): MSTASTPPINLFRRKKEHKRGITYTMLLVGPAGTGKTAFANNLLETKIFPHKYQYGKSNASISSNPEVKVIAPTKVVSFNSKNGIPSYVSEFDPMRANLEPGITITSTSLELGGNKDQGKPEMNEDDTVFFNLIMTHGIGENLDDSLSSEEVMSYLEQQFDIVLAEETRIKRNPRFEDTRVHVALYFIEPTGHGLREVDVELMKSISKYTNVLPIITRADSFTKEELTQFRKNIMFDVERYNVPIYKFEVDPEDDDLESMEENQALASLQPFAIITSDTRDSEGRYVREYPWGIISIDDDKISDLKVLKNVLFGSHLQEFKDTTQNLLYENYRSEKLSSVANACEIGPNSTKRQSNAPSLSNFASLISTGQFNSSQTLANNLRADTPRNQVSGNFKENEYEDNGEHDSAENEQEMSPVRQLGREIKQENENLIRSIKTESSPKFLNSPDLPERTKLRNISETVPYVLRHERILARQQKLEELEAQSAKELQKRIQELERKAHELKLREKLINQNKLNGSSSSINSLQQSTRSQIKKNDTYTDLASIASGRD

[3] = molecular target: the molecule itself; assay: as above
[4] = molecular target: T1, Shs1(E344C)-capped, otherwise Cys-less …; assay: FRET or BRET; 25 nM donor (AF555)-labelled octamers titrated with acceptor (AF647)-labelled octamers, serial dilutions from 100 nM; 45 mM KCl, 50 mM Tris-HCl pH 8.0; room temperature, 1 h equilibration; triplicate; PCA and curve fit; apparent Kd of end-to-end association of rods; conditions: both partners purified
[5] = molecular target: the molecule itself; assay: as above
[6] = molecular target: T1, Shs1(E344C)-capped, otherwise Cys-less …; assay: FRET or BRET; as a1 but 35 nM donor (AF555)-labelled octamers; 45 mM KCl, 50 mM Tris-HCl pH 8.0; room temperature; apparent Kd; conditions: both partners purified
[7] = molecular target: the molecule itself; assay: as above
[8] = molecular target: T1, Shs1(E344C)-capped, otherwise Cys-less …; assay: FRET or BRET; equimolar (1:1) donor- and acceptor-labelled octamers while varying ionic strength (KCl); PCA; EC50 of ionic strength and apparent Hill coefficient; conditions: both partners purified
[9] = molecular target: the molecule itself; assay: as above
[10] = molecular target: T2, Shs1(Δ2–18/Δα0 E344C)-capped, otherwise Cys-less septin hetero-octamer (S. cerevisiae, UniProt Q07657 1-551; P32468 1-407; P32457 1-520; P25342 1-322, Δ2–18 | C29V | C148S | E344C | C40A | C278S | C124V | C253V | C279V | C266S, Alexa Fluor 555 maleimide (donor) on C344 (E344C)); assay: FRET or BRET; 25 nM donor (AF555)-labelled octamers titrated with acceptor (AF647)-labelled octamers, serial dilutions from 100 nM; 45 mM KCl, 50 mM Tris-HCl pH 8.0; room temperature, 1 h equilibration; triplicate; PCA and curve fit; apparent Kd of end-to-end association of rods; conditions: both partners purified
T2 construct: Cdc12, S. cerevisiae mitotic septin, Cys-less variant; Cdc3, S. cerevisiae mitotic septin, Cys-less variant; Cdc10, S. cerevisiae mitotic septin, Cys-less variant; also called Shs1 Δα0^AF555; Shs1(Δα0) complexes; source: E. coli NiCo21 (DE3), subunits co-expressed, purified (IMAC, chitin-agarose flow-through, SEC), maleimide dye-labelled; not shown: His6, N-terminal, kept; copies: 2 + 2 + 2 + 2
T2 sequence (Q07657 other isoform, or with tags, fused parts or gaps with the stated changes): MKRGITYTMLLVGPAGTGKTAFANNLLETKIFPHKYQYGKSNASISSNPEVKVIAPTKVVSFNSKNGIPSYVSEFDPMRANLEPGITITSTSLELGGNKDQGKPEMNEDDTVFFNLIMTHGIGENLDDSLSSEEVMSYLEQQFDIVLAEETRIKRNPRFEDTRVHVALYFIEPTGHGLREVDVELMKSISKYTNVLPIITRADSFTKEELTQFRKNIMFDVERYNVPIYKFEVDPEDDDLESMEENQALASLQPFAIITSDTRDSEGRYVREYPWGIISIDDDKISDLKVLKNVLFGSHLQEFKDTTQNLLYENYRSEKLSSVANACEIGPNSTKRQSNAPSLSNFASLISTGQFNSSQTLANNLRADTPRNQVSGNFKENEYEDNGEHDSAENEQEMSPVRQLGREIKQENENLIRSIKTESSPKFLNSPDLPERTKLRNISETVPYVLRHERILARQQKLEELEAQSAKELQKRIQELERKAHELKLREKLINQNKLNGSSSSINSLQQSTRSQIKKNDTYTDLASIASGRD

[11] = molecular target: B1; assay: FRET or BRET; 25 nM Cdc11^AF555 octamers assembled into filaments at low salt, titrated with Bni5^AF647 (maximum 500 nM); apparent Kd; conditions: both partners purified
[12] = molecular target: B1; assay: FRET or BRET; 15 nM Cdc11^AF555 octamers assembled into filaments at low salt, titrated with Bni5^AF647 (maximum 500 nM); apparent Kd; conditions: both partners purified

B1
Kd [1]: > 0.1 µM | Kd [2]: 0.0275 µM | Kd [3]: 0.0388 µM | Kd [4]: 0.0108 µM | Kd [5]: 0.0202 µM | Kd [6]: 0.0213 µM | Kd [7]: 0.0345 µM | ionic strength (KCl) at EC50 of the FRET signal [8]: 198000 µM | ionic strength (KCl) at EC50 of the FRET signal [9]: 181000 µM | Kd [10]: 0.0406 µM

B2
Kd [11]: 0.21 µM | Kd [12]: 0.222 µM
